In US20110318339A1 (FABRUS, published 2011):
Numbering of substitutions follows the chain as printed. Numbers in names are those of the source.

B1: Fab VH1-46_IGHD6-6*01_IGHJ1*01 S102A/S103P/S104F/H111F I51V/N52L/S54T/G56H (H:APFF VLTH) & L6_IGKJ1*01 S28N/S30D/S31H (L:NDH) (Fab, V domains shown)
VH: QVQLVQSGAEVKKPGASVKVSCKASGYTFTSYYMHWVRQAPGQGLEWMGIVLPTGHSTSYAQKFQGRVTMTRDTSTSTVYMELSSLRSEDTAVYYCAREEYAPFSAEYFQFWGQGTLVTVSS
VL: EIVLTQSPATLSLSPGERATLSCRASQNVDHYLAWYQQKPGQAPRLLIYDASNRATGIPARFSGSGSGTDFTLTISSLEPEDFAVYYCQQRSNWPPWTFGQGTKVEIKR
notes: Tested as Fab from E. coli (Plasmid A: CH1, His6, Flag; Plasmid C: CL kappa); also called H:APFF VLTH & L:NDH; APFF VLTH / NDH
B2: Fab VH1-46_IGHD6-6*01_IGHJ1*01 S102A/S103P/S104F/H111F G56H (H:APFF G56H) & L6_IGKJ1*01 (Fab, V domains shown)
VH: B1 VH with V51I, L52N, T54S
VL: not shown
notes: Tested as Fab from E. coli: VH cloned into Plasmid A (CH1, His6 and Flag tags), kappa VL into Plasmid C (CL kappa); also called H:APFF G56H & L:wt
B3: Fab VH1-46_IGHD6-6*01_IGHJ1*01 S102A/S103P/S104F/H111F I51V/N52L/S54T/G56H (H:APFF VLTH) & L6_IGKJ1*01 S28N/S30D/S31H S52L/A55S (L:NDH LS) (Fab, V domains shown)
VH: B1 VH
VL: B1 VL with S52L, A55S
notes: Tested as Fab from E. coli (Plasmid A: CH1, His6, Flag; Plasmid C: CL kappa); also called H:APFF VLTH & L:NDH LS; APFF VLTH / NDH LS

How the values were obtained:
[1] = target: T1, recombinant human DLL4 (Cat# 1506-D4/CF, R&D Systems) (human, UniProt Q9NR61 27-529); assay: ELISA, hDLL4 coated 0.5 ng/ul, Fab 0.08 nM
T1 construct: Bought protein; also called hDLL4; h DLL4
Procedure: (§1) The plate was blocked by adding 1% BSA in Tris-buffered Saline Tween (TBST) and incubating for 1 hour at room temperature followed by washing 2 times with 150 μl TBST. A Fab antibody was serially diluted in 1% BSA in PBS. A 50 μl aliquot of each serial dilution was added, in triplicate, to each well and the plate was incubated for 1 hour at room temperature followed by washing 2 times with TBST. 50 μl of either goat anti-human kappa HRP conjugated secondary antibody (Cat # A7164-1 mL, Sigma-Aldrich) or goat anti-human lambda HRP conjugated secondary antibody (Cat # L1645-1 ml, Sigma-Aldrich), diluted 1:1000 in 1% BSA in PBS, was added to each well and the plate was incubated for 30 minutes at room temperature followed by washing 3 times with 200 μl TBST. Finally, 50 μl TMB one-component reagent (Cat # TMBW-1000-01, BioFax) was added and allowed to develop for 2 minutes at room temperature. The reaction was immediately halted by the addition of 50 μl 0.5M H₂SO₄ and the absorbance at 450 nm was measured using an ELISA plate reader.

[2] = target: T1, recombinant human DLL4 (Cat# …); assay: ELISA, hDLL4 coated 0.5 ng/ul, Fab 0.16 nM
Procedure: (§2) In this example, an ELISA binding assay was used to assess the dose-dependent binding of Fab antibodies to recombinant human DLL4 and recombinant mouse DLL4.
as §1

[3] = target: T1, recombinant human DLL4 (Cat# …); assay: ELISA, hDLL4 coated 0.5 ng/ul, Fab 0.31 nM
Procedure: as §2, §1

[4] = target: T1, recombinant human DLL4 (Cat# …); assay: ELISA, hDLL4 coated 0.5 ng/ul, Fab 0.63 nM
Procedure: as §1

[5] = target: T1, recombinant human DLL4 (Cat# …); assay: ELISA, hDLL4 coated 0.5 ng/ul, Fab 1.25 nM
Procedure: as §2, §1

[6] = target: T1, recombinant human DLL4 (Cat# …); assay: ELISA, hDLL4 coated 0.5 ng/ul, Fab 2.50 nM
Procedure: as §2, §1

[7] = target: T1, recombinant human DLL4 (Cat# …); assay: ELISA, hDLL4 coated 0.5 ng/ul, Fab 5.00 nM
Procedure: as §2, §1

[8] = target: T2, recombinant mouse DLL4 (Cat# 1389-D4-050/CF, R&D Systems) (mouse, UniProt Q9JI71 28-525); assay: ELISA, mDLL4 coated 0.5 ng/ul, Fab 0.08 nM
T2 construct: Bought protein; also called mDLL4
T2 sequence (Q9JI71 28-525 limits assumed): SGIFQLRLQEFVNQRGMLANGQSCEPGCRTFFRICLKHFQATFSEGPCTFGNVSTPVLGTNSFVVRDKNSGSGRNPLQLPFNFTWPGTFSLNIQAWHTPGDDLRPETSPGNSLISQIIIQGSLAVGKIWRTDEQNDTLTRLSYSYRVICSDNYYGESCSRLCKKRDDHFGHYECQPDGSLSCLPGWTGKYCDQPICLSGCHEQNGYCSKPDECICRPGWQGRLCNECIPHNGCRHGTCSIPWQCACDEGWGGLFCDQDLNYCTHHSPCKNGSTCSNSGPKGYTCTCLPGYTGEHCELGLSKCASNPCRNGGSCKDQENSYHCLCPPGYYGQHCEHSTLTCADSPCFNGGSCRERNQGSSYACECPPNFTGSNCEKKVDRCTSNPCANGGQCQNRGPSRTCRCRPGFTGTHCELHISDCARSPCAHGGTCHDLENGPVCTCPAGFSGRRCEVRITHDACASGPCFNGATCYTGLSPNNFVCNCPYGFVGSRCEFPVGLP
Procedure: as §1

[9] = target: T2, recombinant mouse DLL4 (Cat# …); assay: ELISA, mDLL4 coated 0.5 ng/ul, Fab 0.16 nM
Procedure: as §1

[10] = target: T2, recombinant mouse DLL4 (Cat# …); assay: ELISA, mDLL4 coated 0.5 ng/ul, Fab 0.31 nM
Procedure: as §1

[11] = target: T2, recombinant mouse DLL4 (Cat# …); assay: ELISA, mDLL4 coated 0.5 ng/ul, Fab 0.63 nM
Procedure: as §1

[12] = target: T2, recombinant mouse DLL4 (Cat# …); assay: ELISA, mDLL4 coated 0.5 ng/ul, Fab 1.25 nM
Procedure: as §2, §1

[13] = target: T2, recombinant mouse DLL4 (Cat# …); assay: ELISA, mDLL4 coated 0.5 ng/ul, Fab 2.50 nM
Procedure: as §2, §1

[14] = target: T2, recombinant mouse DLL4 (Cat# …); assay: ELISA, mDLL4 coated 0.5 ng/ul, Fab 5.00 nM
Procedure: as §2, §1

[15] = target: T1, recombinant human DLL4 (Cat# …); assay: ELISA, hDLL4 coated 0.5 ng/ul, Fab 10.00 nM
Procedure: as §2, §1

[16] = target: T2, recombinant mouse DLL4 (Cat# …); assay: ELISA, mDLL4 coated 0.5 ng/ul, Fab 10.00 nM
Procedure: as §1

[17] = target: T3, full-length human DLL4 expressed on the surface of CHO cells (human, UniProt Q9NR61 26-685); assay: flow cytometry competition, 250 nM biotinylated Notch-Fc as competitor, Fab 2 nM
T3 construct: also called CHO-DLL4; DLL4-expressing CHO cells
Procedure: (§3) Streptavidin-PE was used as a detection molecule.
(§4) Fab was 5-fold serially diluted in 2% BSA/PBS from a starting concentration of 50 nM. […] PE-labeled streptavidin (Cat# 21627, Pierce-Thermo Scientific) was then added to a final dilution of 1:5 followed by incubation for 10 minutes at room temperature. The cells were then washed twice in 2% BSA/PBS and analyzed by flow cytometry on a BD FACSAria.

[18] = target: T3, full-length human DLL4 expressed on the …; assay: flow cytometry competition, 250 nM biotinylated Notch-Fc as competitor, Fab 10 nM
Procedure: as §3, §4

[19] = target: T3, full-length human DLL4 expressed on the …; assay: flow cytometry competition, 250 nM biotinylated Notch-Fc as competitor, Fab 50 nM
Procedure: as §3, §4

ELISA absorbance at 450 nm [1]	ELISA absorbance at 450 nm [2]	ELISA absorbance at 450 nm [3]	ELISA absorbance at 450 nm [4]	ELISA absorbance at 450 nm [5]	ELISA absorbance at 450 nm [6]	ELISA absorbance at 450 nm [7]	ELISA absorbance at 450 nm [8]	ELISA absorbance at 450 nm [9]	ELISA absorbance at 450 nm [10]	ELISA absorbance at 450 nm [11]	ELISA absorbance at 450 nm [12]	ELISA absorbance at 450 nm [13]	ELISA absorbance at 450 nm [14]	ELISA absorbance at 450 nm [15]	ELISA absorbance at 450 nm [16]	signal of Notch-Fc bound to CHO-DLL4 (streptavidin-PE) [17]	signal of Notch-Fc bound to CHO-DLL4 (streptavidin-PE) [18]	signal of Notch-Fc bound to CHO-DLL4 (streptavidin-PE) [19]	Binder
0.189 A450	0.407 A450	0.683 A450	1.09 A450	1.4 A450	1.83 A450	1.92 A450	0.063 A450	0.081 A450	0.105 A450	0.206 A450	0.317 A450	0.583 A450	0.833 A450	2.25 A450	1.22 A450	–	–	–	B1
0.071 A450	0.079 A450	0.103 A450	0.168 A450	0.264 A450	0.535 A450	0.882 A450	0.048 A450	0.048 A450	0.049 A450	0.052 A450	0.054 A450	0.061 A450	0.07 A450	1.2 A450	0.088 A450	–	–	–	B2
0.259 A450	0.593 A450	0.85 A450	1.4 A450	1.65 A450	1.96 A450	2.06 A450	0.078 A450	0.142 A450	0.205 A450	0.404 A450	0.604 A450	0.983 A450	1.28 A450	2.25 A450	1.55 A450	117	30	30	B3
